Laboratory results from publication PMC6235537 (Science Advances, 2018).

Key:
GM^CBM21 = target: T1, GM^CBM21 (Oryctolagus cuniculus, UniProt Q00756); test: ITC; assay type: binding
T1 sequence (Q00756 102-237): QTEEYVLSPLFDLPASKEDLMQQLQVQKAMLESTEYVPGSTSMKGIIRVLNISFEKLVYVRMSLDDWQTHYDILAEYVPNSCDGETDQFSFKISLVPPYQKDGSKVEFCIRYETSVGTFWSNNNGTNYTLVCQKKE

His6-tagged PP1α_(7–330) [1] = target: T2, His6-tagged PP1α_(7–330) (UniProt P62136 7-330); test: ITC
[2] = target: PP1α_(7–300) (as crystallised with GM^64–93 and microcystin-LR) (UniProt P62136 7-300); test: crystal structure
PP1α_(7–300) (as crystallised with GM^64–93 and microcystin-LR), sequence (P62136 7-300): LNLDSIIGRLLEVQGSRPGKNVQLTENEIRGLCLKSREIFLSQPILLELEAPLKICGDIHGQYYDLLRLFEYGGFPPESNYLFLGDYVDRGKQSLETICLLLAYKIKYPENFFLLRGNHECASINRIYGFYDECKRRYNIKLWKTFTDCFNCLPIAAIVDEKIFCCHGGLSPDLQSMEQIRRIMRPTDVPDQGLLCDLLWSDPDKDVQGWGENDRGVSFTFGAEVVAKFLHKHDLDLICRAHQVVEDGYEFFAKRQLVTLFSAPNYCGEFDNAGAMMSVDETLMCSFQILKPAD

His6-tagged PP1α_(7–330) [3] = target: T2, His6-tagged PP1α_(7–330); test: SPR
His6-tagged PP1γ_(7–308) = His6-tagged PP1γ_(7–308) (UniProt P36873 7-308); test: ITC
His6-tagged PP1γ_(7–308), sequence (P36873 7-308): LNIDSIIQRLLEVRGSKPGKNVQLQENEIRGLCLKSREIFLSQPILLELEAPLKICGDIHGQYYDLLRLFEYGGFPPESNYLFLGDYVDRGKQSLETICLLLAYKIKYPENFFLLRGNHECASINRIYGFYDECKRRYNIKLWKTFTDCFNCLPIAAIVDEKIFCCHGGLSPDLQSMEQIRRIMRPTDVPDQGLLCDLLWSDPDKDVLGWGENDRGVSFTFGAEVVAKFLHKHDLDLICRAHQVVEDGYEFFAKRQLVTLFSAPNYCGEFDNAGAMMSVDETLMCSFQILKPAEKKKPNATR

His6-tagged PP1α_(7–300) = His6-tagged PP1α_(7–300) (UniProt P62136 7-300); test: ITC
His6-tagged PP1α_(7–300), sequence (P62136 7-300): as the sequence (P62136 7-300) above

His6-tagged PP1β_(6–327) = His6-tagged PP1β_(6–327) (UniProt P62140 6-327); test: ITC
His6-tagged PP1β_(6–327), sequence (P62140 6-327): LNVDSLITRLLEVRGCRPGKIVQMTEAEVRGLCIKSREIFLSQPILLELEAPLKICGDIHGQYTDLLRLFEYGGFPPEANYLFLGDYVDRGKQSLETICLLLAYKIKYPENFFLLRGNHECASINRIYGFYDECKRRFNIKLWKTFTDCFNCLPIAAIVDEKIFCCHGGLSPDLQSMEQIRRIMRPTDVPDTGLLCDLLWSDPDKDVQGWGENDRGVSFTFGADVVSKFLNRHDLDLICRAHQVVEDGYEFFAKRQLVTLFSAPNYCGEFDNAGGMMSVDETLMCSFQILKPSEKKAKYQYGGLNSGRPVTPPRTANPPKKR

His6-tagged PP1γ_(7–323) = His6-tagged PP1γ_(7–323) (UniProt P36873 7-323); test: ITC
His6-tagged PP1γ_(7–323), sequence (P36873 7-323): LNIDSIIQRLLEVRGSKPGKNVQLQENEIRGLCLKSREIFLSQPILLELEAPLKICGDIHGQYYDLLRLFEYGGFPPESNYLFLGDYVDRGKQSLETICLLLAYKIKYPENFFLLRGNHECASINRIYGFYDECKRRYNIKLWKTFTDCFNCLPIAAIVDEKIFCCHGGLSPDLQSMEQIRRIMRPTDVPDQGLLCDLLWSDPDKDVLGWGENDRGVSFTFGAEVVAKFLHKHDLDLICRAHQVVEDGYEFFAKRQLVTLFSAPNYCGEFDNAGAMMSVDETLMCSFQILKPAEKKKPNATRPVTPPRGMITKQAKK

T2 sequence (P62136 7-330): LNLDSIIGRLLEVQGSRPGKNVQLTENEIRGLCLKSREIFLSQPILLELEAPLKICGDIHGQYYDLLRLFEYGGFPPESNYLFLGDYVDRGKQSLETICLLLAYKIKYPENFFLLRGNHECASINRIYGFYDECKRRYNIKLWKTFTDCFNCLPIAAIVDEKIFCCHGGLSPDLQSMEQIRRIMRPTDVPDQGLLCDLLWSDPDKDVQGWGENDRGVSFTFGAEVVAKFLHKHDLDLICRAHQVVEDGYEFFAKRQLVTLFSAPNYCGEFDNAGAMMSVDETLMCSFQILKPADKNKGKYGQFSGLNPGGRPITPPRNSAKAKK

With `OC[C@H]1O[C@@H]2O[C@H]3[C@H](O)[C@@H](O)[C@@H](O[C@H]4[C@H](O)[C@@H](O)[C@@H](O[C@H]5[C@H](O)[C@@H](O)[C@@H](O[C@H]6[C@H](O)[C@@H](O)[C@@H](O[C@H]7[C@H](O)[C@@H](O)[C@@H](O[C@H]1[C@H](O)[C@H]2O)O[C@@H]7CO)O[C@@H]6CO)O[C@@H]5CO)O[C@@H]4CO)O[C@@H]3CO` [α-CD] the Kd (GM^CBM21) was 27600 nM.

Work on `OC[C@H]1O[C@@H]2O[C@H]3[C@H](O)[C@@H](O)[C@@H](O[C@H]4[C@H](O)[C@@H](O)[C@@H](O[C@H]5[C@H](O)[C@@H](O)[C@@H](O[C@H]6[C@H](O)[C@@H](O)[C@@H](O[C@H]7[C@H](O)[C@@H](O)[C@@H](O[C@H]8[C@H](O)[C@@H](O)[C@@H](O[C@H]1[C@H](O)[C@H]2O)O[C@@H]8CO)O[C@@H]7CO)O[C@@H]6CO)O[C@@H]5CO)O[C@@H]4CO)O[C@@H]3CO` [β-CD] yielded a Kd (GM^CBM21) of 8200 ± 100 nM.

B1: GM^2–237 (muscle glycogen-targeting subunit of PP1, PPP1R3A, residues 2 to 237) (domain or fragment)
chain: EPSEVPGQNSKDNFLEVPNLSDSLCEDEEVKAIFKPGFSPQPSRRGSESSEEVYVHTASSGGRRVSFADNFGFNLVSVKEFDTWELPSVSTTFELGKDAFQTEEYVLSPLFDLPASKEDLMQQLQVQKAMLESTEYVPGSTSMKGIIRVLNISFEKLVYVRMSLDDWQTHYDILAEYVPNSCDGETDQFSFKISLVPPYQKDGSKVEFCIRYETSVGTFWSNNNGTNYTLVCQKKE
In the case of B1, the Kd (His6-tagged PP1α_(7–330) [1]) is reported as 26.5 ± 2.3 nM and the dH (His6-tagged PP1α_(7–330) [1]) is reported as -20.2 ± 1 kcal/mol.

RRVSFADNFGFNLVSVKEFDTWELPSVSTT [GM^64–93 peptide]: binds [2].

Work on RRVSFADNFGFNLVSVKEFDTWELPSVSTTFELGKDAFQTEE [GM^64–105 peptide] yielded a Kd (His6-tagged PP1α_(7–330) [3]) of 114 ± 4 nM.

B2: GM^64–237 (domain or fragment)
chain: RRVSFADNFGFNLVSVKEFDTWELPSVSTTFELGKDAFQTEEYVLSPLFDLPASKEDLMQQLQVQKAMLESTEYVPGSTSMKGIIRVLNISFEKLVYVRMSLDDWQTHYDILAEYVPNSCDGETDQFSFKISLVPPYQKDGSKVEFCIRYETSVGTFWSNNNGTNYTLVCQKKE
In the case of B2, the Kd (His6-tagged PP1γ_(7–308)) is reported as 55.7 ± 5.1 nM, the dH (His6-tagged PP1γ_(7–308)) is reported as -13.3 ± 5.2 kcal/mol and the Kd (His6-tagged PP1α_(7–300)) is reported as 51 ± 5.1 nM. It also gave a dH (His6-tagged PP1α_(7–300)) of -25.1 ± 0.9 kcal/mol, a Kd (His6-tagged PP1β_(6–327)) of 17.3 ± 4 nM and a dH (His6-tagged PP1β_(6–327)) of -15.4 ± 0.8 kcal/mol. The Kd (His6-tagged PP1α_(7–330) [1]) was 20.8 ± 2.4 nM, the dH (His6-tagged PP1α_(7–330) [1]) was -34.5 ± 2.4 kcal/mol and the Kd (His6-tagged PP1γ_(7–323)) was 21.4 ± 11.6 nM. The dH (His6-tagged PP1γ_(7–323)) was -22.6 ± 0.1 kcal/mol.
